T1: SYNJ2BP, P57105
T1 sequence (P57105 8-110, limits assumed, looked up): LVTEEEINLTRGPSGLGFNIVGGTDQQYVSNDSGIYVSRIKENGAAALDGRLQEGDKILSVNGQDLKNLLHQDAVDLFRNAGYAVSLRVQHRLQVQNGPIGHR

T2: TJP3_3, O95049
T2 sequence (O95049 375-456, limits assumed, looked up): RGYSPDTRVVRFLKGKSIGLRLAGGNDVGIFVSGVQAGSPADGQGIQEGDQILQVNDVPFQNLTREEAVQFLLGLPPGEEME

T3: SIPA1L2, Q9P2F8
T3 sequence (Q9P2F8 945-1036, limits assumed, looked up): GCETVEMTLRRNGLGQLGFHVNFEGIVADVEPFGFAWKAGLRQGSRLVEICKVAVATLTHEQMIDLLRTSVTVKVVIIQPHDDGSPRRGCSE

T4: SNTG2, Q9NY99
T4 sequence (Q9NY99 68-166, limits assumed, looked up): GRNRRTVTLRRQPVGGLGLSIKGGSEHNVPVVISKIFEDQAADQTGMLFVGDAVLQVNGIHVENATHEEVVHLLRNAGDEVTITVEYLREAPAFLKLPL

T5: SHANK1, Q9Y566
T5 sequence (Q9Y566 658-767, limits assumed, looked up): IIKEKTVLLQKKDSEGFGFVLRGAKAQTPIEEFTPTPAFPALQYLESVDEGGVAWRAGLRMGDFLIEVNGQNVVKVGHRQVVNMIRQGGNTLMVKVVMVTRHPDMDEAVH

T6: MPP2, Q14168
T6 sequence (Q14168 180-250, limits assumed, looked up): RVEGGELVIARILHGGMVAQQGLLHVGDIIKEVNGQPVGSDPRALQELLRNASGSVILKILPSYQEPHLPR

T7: ARHGAP21, Q5T5U3
T7 sequence (Q5T5U3 45-169, limits assumed, looked up): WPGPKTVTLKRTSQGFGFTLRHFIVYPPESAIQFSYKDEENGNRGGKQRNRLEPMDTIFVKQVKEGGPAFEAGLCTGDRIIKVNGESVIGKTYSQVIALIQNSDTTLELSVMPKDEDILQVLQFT

T8: LRRC7, Q96NW7
T8 sequence (Q96NW7 1440-1537, limits assumed, looked up): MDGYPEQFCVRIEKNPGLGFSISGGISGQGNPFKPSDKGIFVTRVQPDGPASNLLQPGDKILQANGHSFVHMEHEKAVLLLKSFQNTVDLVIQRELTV

T9: DLG3_3, Q92796
T9 sequence (Q92796 374-475, limits assumed, looked up): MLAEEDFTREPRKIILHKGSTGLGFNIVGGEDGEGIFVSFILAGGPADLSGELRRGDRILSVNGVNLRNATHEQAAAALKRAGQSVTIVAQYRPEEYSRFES

T10: DFNB31_1, Q9P202
T10 sequence (Q9P202 135-233, limits assumed, looked up): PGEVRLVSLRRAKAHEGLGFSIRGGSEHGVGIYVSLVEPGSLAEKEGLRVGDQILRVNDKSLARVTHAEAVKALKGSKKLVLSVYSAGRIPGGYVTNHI

T11: PTPN13_1, Q12923
T11 sequence (Q12923 1088-1188, limits assumed, looked up): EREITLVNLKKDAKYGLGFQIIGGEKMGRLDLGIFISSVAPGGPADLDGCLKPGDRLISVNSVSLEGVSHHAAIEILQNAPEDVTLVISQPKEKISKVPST

T12: DLG3_2, Q92796
T12 sequence (Q92796 221-321, limits assumed, looked up): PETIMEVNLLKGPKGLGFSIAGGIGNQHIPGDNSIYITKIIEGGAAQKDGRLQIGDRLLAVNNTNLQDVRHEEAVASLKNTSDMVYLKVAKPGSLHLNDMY


Tests used:
Assay in all cases: holdup assay
Set-up in all cases: key: below the threshold = too weak to quantify, mostly under pKd 3.1 to 4
Settings in all cases: plain residues with an end cap or a label only (N-terminal biotin on a linker: ahx)
GRASP, Q7Z6J2 = molecular target: GRASP, Q7Z6J2
Chain of GRASP, Q7Z6J2 (Q7Z6J2 96-193): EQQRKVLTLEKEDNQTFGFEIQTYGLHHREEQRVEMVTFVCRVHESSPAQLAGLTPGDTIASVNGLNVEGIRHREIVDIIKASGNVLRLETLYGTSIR

SYNJ2BP, P57105 = molecular target: T1, SYNJ2BP, P57105
TJP3_3, O95049 = molecular target: T2, TJP3_3, O95049
NHERF2_2, Q15599 = molecular target: NHERF2_2, Q15599
Chain of NHERF2_2, Q15599 (Q15599 142-238): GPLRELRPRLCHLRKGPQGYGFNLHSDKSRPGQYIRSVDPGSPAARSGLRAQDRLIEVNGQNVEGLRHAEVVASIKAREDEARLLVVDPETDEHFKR

SIPA1L2, Q9P2F8 = molecular target: T3, SIPA1L2, Q9P2F8
SCRIB_2, Q14160 = molecular target: SCRIB_2, Q14160
Chain of SCRIB_2, Q14160 (Q14160 857-960): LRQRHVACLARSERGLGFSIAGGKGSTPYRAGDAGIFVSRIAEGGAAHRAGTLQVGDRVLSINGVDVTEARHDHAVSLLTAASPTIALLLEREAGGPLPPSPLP

DLG2_2, Q15700 = molecular target: DLG2_2, Q15700
Chain of DLG2_2, Q15700 (Q15700 189-283): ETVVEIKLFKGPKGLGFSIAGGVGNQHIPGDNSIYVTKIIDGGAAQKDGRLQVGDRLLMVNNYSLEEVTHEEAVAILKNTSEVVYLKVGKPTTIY

AHNAK1, Q09666 = molecular target: AHNAK1, Q09666
Chain of AHNAK1, Q09666 (Q09666 4-100): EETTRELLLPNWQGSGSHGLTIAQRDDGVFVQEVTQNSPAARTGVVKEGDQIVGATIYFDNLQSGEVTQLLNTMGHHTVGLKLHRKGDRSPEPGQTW

Inadl_6, Q8NI35 = molecular target: Inadl_6, Q8NI35
Chain of Inadl_6, Q8NI35 (Q8NI35 1058-1167): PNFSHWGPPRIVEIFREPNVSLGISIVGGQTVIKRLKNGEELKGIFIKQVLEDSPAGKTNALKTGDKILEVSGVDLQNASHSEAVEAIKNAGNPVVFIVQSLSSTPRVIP

PTPN3, P26045 = molecular target: PTPN3, P26045
Chain of PTPN3, P26045 (P26045 505-587): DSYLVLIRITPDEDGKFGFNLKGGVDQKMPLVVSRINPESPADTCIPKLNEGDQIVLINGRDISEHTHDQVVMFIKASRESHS

DLG4_2, P78352 = molecular target: DLG4_2, P78352
Chain of DLG4_2, P78352 (P78352 155-259): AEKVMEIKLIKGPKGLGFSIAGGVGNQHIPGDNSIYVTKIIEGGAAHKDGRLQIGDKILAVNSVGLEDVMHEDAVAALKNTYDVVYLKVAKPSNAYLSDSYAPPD

SNTG2, Q9NY99 = molecular target: T4, SNTG2, Q9NY99
LNX1_2, Q8TBB1 = molecular target: LNX1_2, Q8TBB1
Chain of LNX1_2, Q8TBB1 (Q8TBB1 371-470): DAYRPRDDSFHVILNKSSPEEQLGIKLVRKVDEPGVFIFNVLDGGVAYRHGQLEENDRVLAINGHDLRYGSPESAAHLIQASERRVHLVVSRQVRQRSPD

PDZRN4_1, Q6ZMN7 = molecular target: PDZRN4_1, Q6ZMN7
Chain of PDZRN4_1, Q6ZMN7 (Q6ZMN7 213-318): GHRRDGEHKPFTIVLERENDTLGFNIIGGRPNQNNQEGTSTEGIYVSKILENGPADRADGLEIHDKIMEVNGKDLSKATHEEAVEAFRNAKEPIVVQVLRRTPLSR

SHANK1, Q9Y566 = molecular target: T5, SHANK1, Q9Y566
MPP2, Q14168 = molecular target: T6, MPP2, Q14168
ARHGAP21, Q5T5U3 = molecular target: T7, ARHGAP21, Q5T5U3
SCRIB_3, Q14160 = molecular target: SCRIB_3, Q14160
Chain of SCRIB_3, Q14160 (Q14160 999-1103): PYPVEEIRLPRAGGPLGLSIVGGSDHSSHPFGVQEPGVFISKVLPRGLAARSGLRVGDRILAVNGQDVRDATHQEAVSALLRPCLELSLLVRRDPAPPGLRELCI

SCRIB_1, Q14160 = molecular target: SCRIB_1, Q14160
Chain of SCRIB_1, Q14160 (Q14160 718-814): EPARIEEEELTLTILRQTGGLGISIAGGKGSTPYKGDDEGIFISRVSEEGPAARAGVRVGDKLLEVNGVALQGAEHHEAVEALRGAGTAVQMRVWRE

NHERF4_2, Q86UT5 = molecular target: NHERF4_2, Q86UT5
Chain of NHERF4_2, Q86UT5 (Q86UT5 220-308): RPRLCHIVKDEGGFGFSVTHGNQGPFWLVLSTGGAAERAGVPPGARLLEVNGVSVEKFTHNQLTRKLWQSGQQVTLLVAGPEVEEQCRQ

LRRC7, Q96NW7 = molecular target: T8, LRRC7, Q96NW7
DLG3_3, Q92796 = molecular target: T9, DLG3_3, Q92796
DFNB31_1, Q9P202 = molecular target: T10, DFNB31_1, Q9P202
PTPN13_1, Q12923 = molecular target: T11, PTPN13_1, Q12923
DLG3_2, Q92796 = molecular target: T12, DLG3_2, Q92796
FRMPD3, Q5JV73 = molecular target: FRMPD3, Q5JV73
Chain of FRMPD3, Q5JV73 (Q5JV73 12-100): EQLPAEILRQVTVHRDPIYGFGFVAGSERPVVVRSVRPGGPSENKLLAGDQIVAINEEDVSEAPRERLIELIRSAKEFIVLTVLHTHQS

Binder | pKd (GRASP, Q7Z6J2) | pKd (SYNJ2BP, P57105) | pKd (TJP3_3, O95049) | pKd (NHERF2_2, Q15599) | pKd (SIPA1L2, Q9P2F8) | pKd (SCRIB_2, Q14160) | pKd (DLG2_2, Q15700) | pKd (AHNAK1, Q09666) | pKd (Inadl_6, Q8NI35) | pKd (PTPN3, P26045) | pKd (DLG4_2, P78352) | pKd (SNTG2, Q9NY99) | pKd (LNX1_2, Q8TBB1) | pKd (PDZRN4_1, Q6ZMN7) | pKd (SHANK1, Q9Y566) | pKd (MPP2, Q14168) | pKd (ARHGAP21, Q5T5U3) | pKd (SCRIB_3, Q14160) | pKd (SCRIB_1, Q14160) | pKd (NHERF4_2, Q86UT5) | other results
NRKREIFSNF [NHERF2, Q15599] | below the threshold | below the threshold | below the threshold | below the threshold | below the threshold | below the threshold | below the threshold | below the threshold | below the threshold | below the threshold | below the threshold | below the threshold | below the threshold | below the threshold | below the threshold | below the threshold | below the threshold | below the threshold | below the threshold | below the threshold | pKd (LRRC7, Q96NW7): below the threshold; pKd (DLG3_3, Q92796): below the threshold; pKd (DFNB31_1, Q9P202): below the threshold; pKd (PTPN13_1, Q12923): below the threshold; pKd (DLG3_2, Q92796): below the threshold; pKd (FRMPD3, Q5JV73): below the threshold
RRRKRKRTYL [HPV49-L2, P36762] | 4.37 | below the threshold | below the threshold | 3.49 | below the threshold | below the threshold | 4.58 | 3.56 | below the threshold | 3.72 | below the threshold | 3.57 | below the threshold | 3.55 | 4.32 | 3.74 | 3.6 | 3.75 | 3.67 | below the threshold | pKd (LRRC7, Q96NW7): below the threshold; pKd (DLG3_3, Q92796): 4.28; pKd (DFNB31_1, Q9P202): 3.58; pKd (PTPN13_1, Q12923): below the threshold; pKd (DLG3_2, Q92796): below the threshold; pKd (FRMPD3, Q5JV73): 3.5

Source: paper PMC9482650, “Quantitative fragmentomics allow affinity mapping of interactomes” (Nature Communications, 2022)
